Experimental data published in the Immune Epitope Database (IEDB).

What was measured:
HLA-A*11:01 = assay: IEDB peptide-MHC binding, purified MHC/competitive/fluorescence; ≥ and ≤ were set here for values at or beyond the usual limits of such assays
HLA-A*02:01 [1] = assay: as above
HLA-A*03:01 [2] = assay: as above
HLA-B*15:17 [3] = assay: IEDB peptide-MHC binding, purified MHC/direct/fluorescence; filed as Kd, often an IC50 or EC50 that approximates it; ≥ and ≤ were set here for values at or beyond the usual limits of such assays; details: source organism: Yersinia pestis
HLA-B*57:01 [4] = assay: as above; details: source organism: Yersinia pestis
HLA-B*58:01 = assay: as above; details: source organism: Yersinia pestis
HLA-C*15:02 = assay: as above; details: source organism: Yersinia pestis Nepal516
HLA-B*15:01 [5] = assay: IEDB peptide-MHC binding, purified MHC/competitive/fluorescence; ≥ and ≤ were set here for values at or beyond the usual limits of such assays
HLA-B*39:01 [6] = assay: IEDB peptide-MHC binding, purified MHC/competitive/fluorescence; filed as Kd, often an IC50 or EC50 that approximates it; ≥ and ≤ were set here for values at or beyond the usual limits of such assays
HLA-A*02:01 [7] = assay: as above
HLA-B*46:01 = assay: as above
HLA-A*69:01 [8] = assay: as above
HLA-A*24:03 [9] = assay: as above
HLA-B*57:01 [10] = assay: as above
HLA-B*51:01 = assay: as above
HLA-B*18:01 = assay: as above
HLA-B*15:01 [11] = assay: as above
HLA-A*02:19 [12] = assay: as above
HLA-A*02:03 [13] = assay: as above
HLA-A*02:11 [14] = assay: as above
HLA-B*27:03 = assay: as above
HLA-A*02:16 [15] = assay: as above
HLA-A*26:01 = assay: as above
HLA-A*02:12 [16] = assay: as above
HLA-A*68:02 = assay: as above
HLA-A*03:01 [17] = assay: as above
HLA-A*69:01 [18] = assay: IEDB peptide-MHC binding, purified MHC/direct/fluorescence; filed as Kd, often an IC50 or EC50 that approximates it; ≥ and ≤ were set here for values at or beyond the usual limits of such assays; details: source organism: Mycobacterium tuberculosis
HLA-A*02:11 [19] = assay: as above
HLA-B*39:01 [20] = assay: as above; details: source organism: Orthohantavirus sinnombreense
HLA-A*24:03 [21] = assay: as above; details: source organism: Limestone Canyon virus
HLA-A*29:02 = assay: as above; details: source organism: Limestone Canyon virus
HLA-A*02:19 [22] = assay: as above; details: source organism: Limestone Canyon virus
HLA-A*02:03 [23] = assay: as above; details: source organism: Limestone Canyon virus
HLA-A*02:16 [24] = assay: as above; details: source organism: Limestone Canyon virus
HLA-A*02:12 [25] = assay: as above; details: source organism: Limestone Canyon virus
HLA-A*03:01 [26] = assay: as above; details: source organism: Limestone Canyon virus
HLA-B*15:17 [27] = assay: IEDB peptide-MHC binding, purified MHC/competitive/fluorescence; filed as Kd, often an IC50 or EC50 that approximates it; ≥ and ≤ were set here for values at or beyond the usual limits of such assays; details: source organism: Homo sapiens
HLA-A*02:02 = assay: IEDB peptide-MHC binding, purified MHC/competitive/radioactivity; filed as Kd, often an IC50 or EC50 that approximates it; ≥ and ≤ were set here for values at or beyond the usual limits of such assays; details: source organism: Human immunodeficiency virus type 1 (CLONE 12)
[28] = source organism: Zaire ebolavirus
[29] = source organism: Sudan ebolavirus
[30] = source organism: Listeria monocytogenes serotype 4b str. H7858
[31] = source organism: Vaccinia virus WR
[32] = source organism: Orthohantavirus sinnombreense
[33] = source organism: Human immunodeficiency virus 1

## VVFSTSDGK
HLA-A*11:01; [28]
  IC50: 1.03 µM
HLA-A*02:01 [1]; [28]
  IC50: ≥ 387 µM
HLA-A*03:01 [2]; [28]
  IC50: 4.54 µM

## MAMPEYWQF
HLA-B*15:17 [3]
  Kd: 0.0088 µM
HLA-B*57:01 [4]
  Kd: 0.0237 µM
HLA-B*58:01
  Kd: 0.0017 µM
HLA-C*15:02
  Kd: ≥ 20 µM

## MQISTIGIR
HLA-A*11:01; [29]
  IC50: 2.56 µM
HLA-A*02:01 [1]; [29]
  IC50: ≥ 117 µM
HLA-B*15:01 [5]; [29]
  IC50: 26.5 µM
HLA-A*03:01 [2]; [29]
  IC50: ≥ 145 µM

## ITWPRTRHW
HLA-B*39:01 [6]; [30]
  Kd: ≥ 20 µM
HLA-A*02:01 [7]; [30]
  Kd: ≥ 20 µM
HLA-B*46:01; [30]
  Kd: ≥ 20 µM
HLA-A*69:01 [8]; [30]
  Kd: ≥ 20 µM
HLA-A*24:03 [9]; [30]
  Kd: ≥ 20 µM
HLA-B*57:01 [10]; [30]
  Kd: 0.033 µM
HLA-B*51:01; [30]
  Kd: ≥ 20 µM
HLA-B*18:01; [30]
  Kd: ≥ 20 µM
HLA-B*15:01 [11]; [30]
  Kd: ≥ 20 µM
HLA-A*02:19 [12]; [30]
  Kd: ≥ 20 µM
HLA-A*02:03 [13]; [30]
  Kd: ≥ 20 µM
HLA-A*02:11 [14]; [30]
  Kd: ≥ 20 µM
HLA-B*27:03; [30]
  Kd: ≥ 20 µM
HLA-A*02:16 [15]; [30]
  Kd: ≥ 20 µM
HLA-A*26:01; [30]
  Kd: ≥ 20 µM
HLA-A*02:12 [16]; [30]
  Kd: ≥ 20 µM
HLA-A*68:02; [30]
  Kd: ≥ 20 µM
HLA-A*03:01 [17]; [30]
  Kd: ≥ 20 µM

## QGYSHGDIK
HLA-A*11:01; [31]
  IC50: 1.79 µM
HLA-A*03:01 [2]; [31]
  IC50: 12.1 µM

## RMWEFLDRL
HLA-A*69:01 [18]
  Kd: 2.18 µM
HLA-A*02:11 [19]; source organism: Mycobacterium tuberculosis str. Haarlem
  Kd: ≤ 0.001 µM

## ITAASLPKT
HLA-A*11:01; [28]
  IC50: 2.9 µM
HLA-A*02:01 [1]; [28]
  IC50: 4.9 µM
HLA-A*03:01 [2]; [28]
  IC50: 30.4 µM

## ILNTIQFMH
HLA-A*11:01; [31]
  IC50: 2.68 µM
HLA-A*02:01 [1]; [31]
  IC50: 5.12 µM
HLA-B*15:01 [5]; [31]
  IC50: ≥ 111 µM
HLA-A*03:01 [2]; [31]
  IC50: 3.36 µM

## TIYTSGKRS
HLA-A*03:01 [2]; [28]
  IC50: 37.4 µM

## YKSRCYVGL
HLA-A*02:01 [7]; [32]
  Kd: ≥ 20 µM
HLA-B*46:01; [32]
  Kd: ≥ 20 µM
HLA-B*57:01 [10]; [32]
  Kd: ≥ 20 µM
HLA-B*51:01; [32]
  Kd: ≥ 20 µM
HLA-B*18:01; [32]
  Kd: ≥ 20 µM
HLA-B*15:01 [11]; [32]
  Kd: ≥ 20 µM
HLA-B*27:03; [32]
  Kd: ≥ 20 µM
HLA-A*26:01; [32]
  Kd: ≥ 20 µM
HLA-B*39:01 [20]
  Kd: 0.293 µM
HLA-A*24:03 [21]
  Kd: ≥ 20 µM
HLA-A*29:02
  Kd: ≥ 20 µM
HLA-A*02:19 [22]
  Kd: ≥ 20 µM
HLA-A*02:03 [23]
  Kd: ≥ 20 µM
HLA-A*02:11 [19]; source organism: Limestone Canyon virus
  Kd: ≥ 20 µM
HLA-A*02:16 [24]
  Kd: ≥ 20 µM
HLA-A*02:12 [25]
  Kd: ≥ 20 µM
HLA-A*03:01 [26]
  Kd: ≥ 20 µM

## FWAWSVLRV
HLA-B*39:01 [6]; source organism: Homo sapiens
  Kd: ≥ 20 µM
HLA-A*02:01 [7]; source organism: Homo sapiens
  Kd: ≥ 20 µM
HLA-B*46:01; source organism: Homo sapiens
  Kd: ≥ 20 µM
HLA-A*69:01 [8]; source organism: Homo sapiens
  Kd: ≥ 20 µM
HLA-B*15:17 [27]
  Kd: ≥ 20 µM
HLA-A*24:03 [9]; source organism: Homo sapiens
  Kd: ≥ 20 µM
HLA-B*57:01 [10]; source organism: Homo sapiens
  Kd: ≥ 20 µM
HLA-B*18:01; source organism: Homo sapiens
  Kd: ≥ 20 µM
HLA-B*15:01 [11]; source organism: Homo sapiens
  Kd: ≥ 20 µM
HLA-A*02:19 [12]; source organism: Homo sapiens
  Kd: ≥ 20 µM
HLA-A*02:03 [13]; source organism: Homo sapiens
  Kd: ≥ 20 µM
HLA-A*02:11 [14]; source organism: Homo sapiens
  Kd: ≥ 20 µM
HLA-B*27:03; source organism: Homo sapiens
  Kd: ≥ 20 µM
HLA-A*02:16 [15]; source organism: Homo sapiens
  Kd: ≥ 20 µM
HLA-A*26:01; source organism: Homo sapiens
  Kd: ≥ 20 µM
HLA-A*02:12 [16]; source organism: Homo sapiens
  Kd: ≥ 20 µM
HLA-A*68:02; source organism: Homo sapiens
  Kd: ≥ 20 µM
HLA-A*03:01 [17]; source organism: Homo sapiens
  Kd: ≥ 20 µM

## AIIRILQQL
HLA-A*02:02
  Kd: 0.374 µM
HLA-B*39:01 [6]; [33]
  Kd: ≥ 20 µM
HLA-A*02:01 [7]; [33]
  Kd: 0.0048 µM
HLA-A*69:01 [8]; [33]
  Kd: 0.578 µM
HLA-A*02:19 [12]; [33]
  Kd: 0.116 µM
HLA-A*02:11 [14]; [33]
  Kd: 0.00021 µM
HLA-A*02:16 [15]; [33]
  Kd: 0.00151 µM
HLA-A*02:12 [16]; [33]
  Kd: 0.011 µM
